Biological target: T1, mouse IL-1α (mouse, UniProt P01582 115-270)
T1 sequence (looked up): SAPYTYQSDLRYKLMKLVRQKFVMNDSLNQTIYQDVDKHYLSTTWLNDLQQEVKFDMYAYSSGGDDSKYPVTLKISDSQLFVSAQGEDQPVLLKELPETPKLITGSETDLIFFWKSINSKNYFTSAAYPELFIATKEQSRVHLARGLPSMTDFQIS
Assay: cell-based or functional assay

fold decrease of potency against the parental anti-mIL-1α mAb: 10 fold
B1: mIL-1α/β DVD-Ig (bispecific antibody, mouse IgG2a, kappa)
heavy: EVQLQQSGPELVKPGTSVKMSCKTSGYTFTSYVMHWVKQKPGQGLEWIGYIIPYNDNTKYNEKFKGKATLTSDKSSSTAYMELSSLTSEDSAVYYCARRNEYYGSSFFDYWGQGTTLTVSSAKTTAPSVYPLAPQVILKESGPGILQPSQTLSLTCSFSGFSLSTYGTAVNWIRQPSGKGLEWLAQIGSDDRKLYNPFLKSRITLSEDTSNSQVFLKITSVDTEDSATYYCANGVMEYWGLGTSVTVSSAKTTAPSVYPLAPVCGDTTGSSVTLGCLVKGYFPEPVTLTWNSGSLSSGVHTFPAVLQSDLYTLSSSVTVTSSTWPSQSITCNVAHPASSTKVDKKIEPRGPTIKPCPPCKCPAPNLLGGPSVFIFPPKIKDVLMISLSPIVTCVVVDVSEDDPDVQISWFVNNVEVHTAQTQTHREDYNSTLRVVSALPIQHQDWMSGKEFKCKVNNKDLPAPIERTISKPKGSVRAPQVYVLPPPEEEMTKKQVTLTCMVTDFMPEDIYVEWTNNGKTELNYKNTEPVLDSDGSYFMYSKLRVEKKNWVERNSYSCSVVHEGLHNHHTTKSFSRTPGK
light: DIQMTQSPASLSASVGETVTITCRGSGILHNYLVWYQQKQGKSPQLLVYSAKILADGVPSRFSGSGSGTQYSLKINSLQPEDFGSYYCQHFWSTPFTFGSGTKLEIKRADAAPTVSIFPPSIVMTQTPKFLLVSAGDRVTITCKASQSVNHDVAWYQQMPGQSPKLLIYFASNRYTGVPDRFTGSGYGTDFTFTISTVQAEDLAVYFCQQDYSSPYTFGGGTKLEIKRADAAPTVSIFPPSSEQLTSGGASVVCFLNNFYPKDINVKWKIDGSERQNGVLNSWTDQDSKDSTYSMSSTLTLTKDEYERHNSYTCEATHKTSTSPIVKSFNRNEC
